We go through three molecules from patent US20200325237A1 (AVIDITY BIOSCIENCES, published 2020).

Assay [1] concerns the target T1, recombinant human transferrin receptor protein (Sino Biological 11020-H07H) (human, UniProt P02786 89-760).
T1 construct: Bought protein coated on ELISA plates; also called recombinant human TfR1; human TfR1
The experiment in a line: ELISA on plate-coated recombinant human TfR1; fit: specific binding with Hill slope. The procedure: (§1) 100 μL of Superblock (ThermoFisher PI-37535) was added to each well and incubated for 1 hour at room temperature. The wash step was repeated before the addition of the samples. Samples were added at concentrations up to 10 nM, 50 μL/well. Plates were incubated for another hour at room temp and wash step repeated. Secondary antibody (Peroxidase AffiniPure Goat Anti-Human IgG, Fcγ Fragment Specific, Jackson Immunoresearch, 109-035-098) was diluted 1:5000 in Superblock and 50 μL/well added. Plates were incubated for 1 hour at room temperature and washed one more time. Binding was measured by the addition of 50 μL of 1-Step™ Ultra TMB-ELISA (ThermoFisher, 34028), incubated for 5 minutes, and the reaction was stopped with the addition of 25 μL of Stop Solution 2N sulfuric Acid (R&D Systems DY994). Absorbance was measured at 450 nm, with reference wavelength 570 nm subtracted. Binding constants were determined using GraphPad Prism Specific Binding with Hill Slope.
(§2) Half-well high-binding 96-well plates (Costar #3690) were coated with recombinant human transferrin receptor protein (Sino Biological 11020-H07H) or recombinant cyno transferrin receptor protein (Sino Biological 90253-C07H) at 1 ng/μL in PBS (Gibco 14190) and incubated overnight at 4° C. […] Absorbance was measured at 450 nm, with reference wavelength 570 nm subtracted. […]
For orientation: ELISA stands for enzyme-linked immunosorbent assay.

Assay [2] addresses T2, recombinant cyno transferrin receptor protein (Sino Biological 90253-C07H) (cyno, UniProt H9EXL1 89-760 (rhesus entry)).
T2 construct: Bought protein coated on ELISA plates; also called recombinant cyno TfR1; cynoTfR1
Description: ELISA on plate-coated recombinant cyno TfR1 (CD71); fit: specific binding with Hill slope. As to the method:
as §1, §2

Assay [3] has as its target T3, TfR2 (transferrin receptor 2) (UniProt Q9UP52 105-801, limits assumed).
T3 sequence (looked up): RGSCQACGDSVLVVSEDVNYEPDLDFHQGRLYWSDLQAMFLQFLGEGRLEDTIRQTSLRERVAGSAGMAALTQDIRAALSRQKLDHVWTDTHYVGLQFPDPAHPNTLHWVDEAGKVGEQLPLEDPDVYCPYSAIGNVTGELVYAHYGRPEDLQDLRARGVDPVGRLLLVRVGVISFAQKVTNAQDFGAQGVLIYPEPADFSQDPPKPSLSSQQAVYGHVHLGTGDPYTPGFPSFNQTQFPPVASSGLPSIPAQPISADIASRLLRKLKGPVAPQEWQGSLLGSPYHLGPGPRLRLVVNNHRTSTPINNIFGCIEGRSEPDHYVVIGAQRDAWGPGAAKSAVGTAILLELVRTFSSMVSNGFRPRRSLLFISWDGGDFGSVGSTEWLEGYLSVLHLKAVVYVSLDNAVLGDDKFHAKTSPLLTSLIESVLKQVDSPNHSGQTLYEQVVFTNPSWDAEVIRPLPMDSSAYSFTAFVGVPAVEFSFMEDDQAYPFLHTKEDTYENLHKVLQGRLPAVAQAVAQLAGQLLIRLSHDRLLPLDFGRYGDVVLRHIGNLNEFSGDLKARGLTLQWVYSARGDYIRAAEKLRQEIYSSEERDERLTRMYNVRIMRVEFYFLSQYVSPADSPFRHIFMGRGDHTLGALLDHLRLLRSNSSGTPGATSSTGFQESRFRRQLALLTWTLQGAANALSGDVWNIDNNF
Description: A450 plate assay on TfR2 (method not described in the text).

For assay [4], the target named is T4, hTfR (human transferrin receptor, source and construct not stated) (human, UniProt P02786 89-760, limits assumed). Description: SPR (BioRad ProteOn XPR36), mAb captured on Protein A, hTfR as analyte, 25 C. In outline: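 Antibodies at 2 ug/ml were captured on a Protein A GLM chip for 40 s. hTfR was injected as analyte from 43 nM in a 3-fold series, 2 min association and 1 h dissociation. Run at 25 degrees C in HEPES/150 mM NaCl pH 7.4 with tween-20 and 0.2 mg/ml BSA.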
T4 sequence (P02786 89-760 limits assumed): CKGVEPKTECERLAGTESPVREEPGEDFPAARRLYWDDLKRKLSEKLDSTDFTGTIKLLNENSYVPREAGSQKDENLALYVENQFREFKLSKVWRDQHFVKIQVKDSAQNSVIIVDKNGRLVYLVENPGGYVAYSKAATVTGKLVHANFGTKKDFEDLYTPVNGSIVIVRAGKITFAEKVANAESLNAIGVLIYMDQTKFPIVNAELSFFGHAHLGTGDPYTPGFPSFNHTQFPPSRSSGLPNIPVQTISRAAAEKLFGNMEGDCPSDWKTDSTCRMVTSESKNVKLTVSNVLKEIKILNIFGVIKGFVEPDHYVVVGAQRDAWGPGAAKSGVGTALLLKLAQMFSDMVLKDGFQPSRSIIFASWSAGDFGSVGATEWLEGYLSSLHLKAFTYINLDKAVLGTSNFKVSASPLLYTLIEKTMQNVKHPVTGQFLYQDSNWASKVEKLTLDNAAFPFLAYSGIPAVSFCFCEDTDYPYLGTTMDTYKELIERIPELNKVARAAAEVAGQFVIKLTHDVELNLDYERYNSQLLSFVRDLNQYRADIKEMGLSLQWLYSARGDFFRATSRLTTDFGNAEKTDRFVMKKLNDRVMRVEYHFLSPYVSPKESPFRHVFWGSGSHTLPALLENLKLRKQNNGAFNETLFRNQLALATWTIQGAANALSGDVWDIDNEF

For assay [5], the target named is T4, hTfR (human transferrin receptor, …). Description: ELISA, biotinylated antibody on hTfR captured by plate-coated HFE (HFE+TfR).
The target is the same in assay [6]. The experiment in a line: ELISA; ratio of the Kd on HFE-captured hTfR to the Kd on directly coated hTfR.
For assay [7] the target is unchanged. The experiment in a line: ELISA; ratio of the Kd on transferrin-captured hTfR to the Kd on directly coated hTfR. The procedure, abridged: (§3)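 Human holo-transferrin coated at 500 ng/mL (4 °C overnight) captured hTfR (200 ng/mL, 30 min); comparison plates carried directly coated hTfR. Biotinylated antibodies, 3-fold series from 20 nM (pre-addition), bound 1 h; streptavidin-HRP/TMB, A450 minus A570. Kd from specific binding with Hill slope; shift judged against reference antibody AF2474 with transferrin-overlapping epitope.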

Assay [8] deals with T2, recombinant cyno transferrin receptor …. The experiment in a line: ELISA on plate-coated recombinant cyno TfR1 (CD71); fit: specific binding with Hill slope. The procedure, abridged: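 Plates coated overnight at 4° C with recombinant human or cyno TfR1 (1 ng/μL), blocked, then incubated with samples up to 10 nM for 1 h at room temperature. Bound IgG detected with HRP anti-human Fcγ and TMB (A450 minus A570); Bmax, h and Kd from specific-binding-with-Hill-slope fit.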
This is another data set of the same source.

In assay [9] the target is T4, hTfR (human transferrin receptor, …). Description: ELISA, biotinylated antibody on hTfR captured by plate-coated HFE (HFE+TfR); fit: specific binding with Hill slope.
Assay [10] shares this target. Description: ELISA, biotinylated antibody on hTfR captured by plate-coated human holo-transferrin (Tf+TfR); fit: specific binding with Hill slope. The procedure, abridged:
as §3

In assay [11] the target is T1, recombinant human transferrin receptor …. The experiment in a line: ELISA on plate-coated recombinant human TfR1 (CD71); fit: specific binding with Hill slope (row labels blank in the lower block; row taken by the order Bmax, h, Kd). The procedure: as §1, with “Half-well high-binding 96-well plates (Costar #3690) were coated with recombinant human transferrin receptor protein (Sino Biological 11020-H07H) or recombinant cyno transferrin receptor protein (Sino Biological 90253-C07H) at 1 ng/μL in PBS (Gibco 14190) and incubated overnight at 4° C. Plates were washed four times with 100 μL of Tris buffered saline+Tween (20×TBST, Cell Signaling 9997S). 100” for “100”

Read-outs that look alike come from different tables or passages of the source.

T2 sequence (chain, as listed by the source C07H C07H): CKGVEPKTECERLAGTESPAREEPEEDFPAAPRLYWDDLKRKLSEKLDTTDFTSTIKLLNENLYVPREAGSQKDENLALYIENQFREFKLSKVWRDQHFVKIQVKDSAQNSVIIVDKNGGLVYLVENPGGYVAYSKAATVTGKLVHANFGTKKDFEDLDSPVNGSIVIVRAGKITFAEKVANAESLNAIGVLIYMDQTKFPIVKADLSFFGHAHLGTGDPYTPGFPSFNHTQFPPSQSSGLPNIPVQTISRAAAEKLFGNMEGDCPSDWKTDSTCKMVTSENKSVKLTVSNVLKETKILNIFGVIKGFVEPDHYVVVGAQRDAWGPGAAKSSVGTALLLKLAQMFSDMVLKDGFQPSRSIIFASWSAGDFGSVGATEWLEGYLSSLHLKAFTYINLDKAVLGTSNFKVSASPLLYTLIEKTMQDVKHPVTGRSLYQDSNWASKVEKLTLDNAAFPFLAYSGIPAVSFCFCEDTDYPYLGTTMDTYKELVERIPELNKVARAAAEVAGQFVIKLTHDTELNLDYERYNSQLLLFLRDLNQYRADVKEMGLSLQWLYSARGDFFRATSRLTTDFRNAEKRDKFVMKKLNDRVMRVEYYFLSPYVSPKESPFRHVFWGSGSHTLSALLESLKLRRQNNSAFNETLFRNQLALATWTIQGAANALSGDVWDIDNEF
T1 sequence (P02786 89-760 limits assumed): as the sequence (P02786 89-760 limits assumed) above

B1: hTfR1.IgG2 mAb-SSB siRNA conjugate (DAR1) (antibody, DAR 1, V domains shown)
VH: QVQLQQPGAELVKPGASVKLSCKASGYTFTNYWMHWVKQRPGQGLEWIGEINPINGRSNYGERFKTKATLTVDKSSSTAYMQLSSLTSEDSAVYYCARGTRAMHYWGQGTSVTVSS
VL: DIQMTQSPASLSVSVGETVTITCRTSENIYNNLAWYQQKQGKSPQLLVYAATNLADGVPSRFSGSGSGTQYSLKINSLQSEDFGNYYCQHFWGTPLTFGAGTKLELKR
modifications: SSB siRNA duplex joined through a bis-maleimide (BisMal) linker to TCEP-reduced cysteines, DAR1; chain and positions not stated; remaining free cysteines capped with N-ethylmaleimide
notes: also called TfR-SSB DAR 1; conjugated hTfRL.IgG2 mAb
Regarding B1, the figures for the Kd in assay [1] and in assay [2] were 3.18 pM and 4.99 pM, respectively.

B2: hTfR1.IgG2 mAb (chimeric human IgG2 anti-hTfR1 antibody) (antibody, V domains shown)
VH: B1 VH
VL: B1 VL
notes: The heavy variable region is printed there only as images; also called hTfRL.IgG2 mAb; TfR1-IgG2 mAb chimera
B2: the dissociation constant Kd (usually a measure of binding affinity in units of concentration) in [1] was 3.22 pM; in [2], 4.87 pM.

B3: 13E4-Variant 15iii (antibody, human IgG1, kappa, L234A L235A)
heavy: QVQLVQSGAEVKKPGASVKVSCKASGYTFTNYWMHWVRQAPGQGLEWMGEINPIQGRSNYAEKFQGRVTLTVDTSSSTAYMELSSLRSEDTATYYCARGTRAMHYWGQGTLVTVSSASTKGPSVFPLAPSSKSTSGGTAALGCLVKDYFPEPVTVSWNSGALTSGVHTFPAVLQSSGLYSLSSVVTVPSSSLGTQTYICNVNHKPSNTKVDKRVEPKSCDKTHTCPPCPAPEAAGGPSVFLFPPKPKDTLMISRTPEVTCVVVDVSHEDPEVKFNWYVDGVEVHNAKTKPREEQYNSTYRVVSVLTVLHQDWLNGKEYKCKVSNKARPAPIEKTISKAKGQPREPQVYTLPPSREEMTKNQVSLTCLVKGFYPSDIAVEWESNGQPENNYKTTPPVLDSDGSFFLYSKLTVDKSRWQQGNVFSCSVMHEALHNHYTQKSLSLSPG
light: DIQMTQSPSSLSASVGDRVTITCRTSENIYSNLAWYQQKPGKAPKLLIYAGTNLADGVPSRFSGSGSGTDYTLTISSLQPEDFANYYCQHFWGTPLTFGGGTKVEIKRTVAAPSVFIFPPSDEQLKSGTASVVCLLNNFYPREAKVQWKVDNALQSGNSQESVTEQDSKDSTYSLSSTLTLSKADYEKHKVYACEVTHQGLSSPVTKSFNRGEC
notes: Humanized hIgG1 with Fc mutations; also called hIgG1 TfR-Var15iii
Regarding B3, in assay [3], the binding result is “no binding (tested: 1000 nM)”. In assay [4], the dissociation constant (Kd) amounted to 9.99 pM; the off-rate constant (koff) – broadly, a measure of how fast the partners let go of each other – was 6.94e-06 s⁻¹; the kon (as a rule, the rate constant with which the complex forms) was determined as 695000 M⁻¹ s⁻¹. In addition, the concentration for a half-maximal effect (EC50 (read off the curve)) (usually the concentration that produces a half-maximal response) in assay [5] was roughly 200 pM. For the same molecule, in assay [6], the “Kd(HFE+TfR)/Kd(TfR)” value is 8.5. Also, the “Kd(Tf+TfR)/Kd(TfR)” value in [7] was determined as 2.4. In [8], the Bmax is 96.4 % max binding, the equilibrium dissociation constant (Kd) stood at 10.3 pM and the h came to 1.54. In assay [9], this molecule yielded a Bmax of 1.81 A450, a Kd of 214 pM and a h of 1.45. In assay [10], this molecule came in with a Bmax of 3.5 A450, a Kd of 60.4 pM and a h of 1.52. Further, in assay [11], the Bmax came to 96.5 % max binding, the Kd is 6.29 pM and the h worked out at 1.35.
